Laboratory results: the supplement of paper PMC10126150
± gives the standard deviation of the averaged measurements.

Test system: ATP
Test: switch fluorescence ratio, 500 uM ATP over buffer (Cy3 cluster intensity, sum of 5 cycles each) (fold (ratio)); higher = stronger signal-on switching upon ATP binding; sequences stand for … in TCGTCGGCAGCGTCAGATGTGTATAAGAGACAGTTTTTTTTTTTTTTTTTTTTTTTTT…TC
Settings: aptamer strand: ATP DNA aptamer (quencher-CACCTGGGGGAGTATTGCGGAGGAAGG + anchor), 100 nM annealed; ATP concentration: 500 uM
Procedure, shortened: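 Cy3-labelled switching-strand clusters on a modified Illumina MiSeq flow-cell were annealed to 100 nM quencher-labelled ATP aptamer and imaged first in selection buffer, then after 15 min with 500 uM ATP at 22 °C. NaOH stripping and re-annealing separated each of five buffer/ATP cycles, and clusters outside 100-1000 RFU were excluded. The fluorescence ratio sums target-cycle Cy3 intensity over buffer-cycle Cy3 intensity per cluster and averages it per switch-domain sequence.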
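Also: ATP exposure 15 min at 22 °C before imaging.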

Sequence	switch fluorescence ratio
CGGGGAAGTG	1 ± 0.019
TACGTGCCTC	0.99 ± 0.02
CTCGGCCGGC	0.982 ± 0.049
TGGGAATTTT	1.01 ± 0.049
TTCCCTTATG	0.976 ± 0.017
CGGACCAAGG	1 ± 0.077
CGATACGATG	0.995 ± 0.011
CTTCTGGAGG	1.15 ± 0.028
TGGTCCAGTG	1.03 ± 0.089
AACGTTAATT	1.025 ± 0.0081
GTGGGGTCGA	1.01 ± 0.04
TTTTCATTTG	1.01 ± 0.034
GCGGTAGTAC	1.14 ± 0.013
TTTAATGCG	1.01 ± 0.025
AGACTAGGCT	1.02 ± 0.018
AAAAAACGCC	1.02 ± 0.027
CGGGTTCGTG	0.972 ± 0.029
CAGAAAGGAC	1.02 ± 0.031
GGTCGGGCTT	1.01 ± 0.034
ACATGGTTAG	0.987 ± 0.03
AACGAGAGGA	0.986 ± 0.012
TTGTTCTTTT	1.07 ± 0.077
TTATAATTGT	0.9966 ± 0.0022
TAGCCTTTTT	0.955 ± 0.015
TATCGTGGGA	1.01 ± 0.019

Sequence	switch fluorescence ratio
AGGGGTTAAG	0.954 ± 0.024
ATCAAAACTT	1.03 ± 0.013
AGGGTTGAAG	0.989 ± 0.035
GGGGTTATGG	0.984 ± 0.041
TTAAAGTTGT	1.03 ± 0.07
TGTATATCTA	1.02 ± 0.025
TGCAGGAATT	1.09 ± 0.17
ACGGGGGATG	0.995 ± 0.025
AATATAGTTG	1.02 ± 0.018
TTTTGCGAAT	0.996 ± 0.018
AAAATCGCTT	1.01 ± 0.065
CATTCCCTGA	0.981 ± 0.011
ACATCCTACT	1.15 ± 0.041
GCGTATAGGG	0.964 ± 0.033
CGTGCCGATC	1.01 ± 0.013
CTGTTTAGGG	1.01 ± 0.018
TTTTGCTATT	1.03 ± 0.013
GAGAGTCTAG	0.989 ± 0.015
TATGCTAAAA	0.965 ± 0.038
CAATTTGATG	0.979 ± 0.05
CGGATATGGT	1 ± 0.013
TTGGGCGTTC	1.12 ± 0.15
GGCTTATGTG	1.02 ± 0.051
CGGGTCTTAG	1.01 ± 0.011
TTTCTCTGAT	0.9813 ± 0.0042

Sequence	switch fluorescence ratio
ATGACGTATT	1.02 ± 0.052
TTTTAAACAT	1.11 ± 0.09
CAGGGACGGT	0.975 ± 0.058
CCATGTCTGT	0.963 ± 0.015
GGAATGAAGT	1.07 ± 0.049
ATTAGGTTGA	0.975 ± 0.0047
CGGATGGGTG	0.996 ± 0.021
AGGGAAATCT	1.034 ± 0.01
GGTACACAGC	1.02 ± 0.015
ATTTATGGTA	0.971 ± 0.014
TTCCAATAAG	1.01 ± 0.02
TTAAATTACC	1.05 ± 0.032
AACTGGGGTA	0.977 ± 0.01
GGGAGCCCTC	0.9958 ± 0.0055
GTTCGACCCG	1.02 ± 0.032
GCTCCAATTT	1.07 ± 0.034
GATGATTGGT	0.998 ± 0.015
TGGTGGGCGA	1.04 ± 0.058
CTATTTAGGG	0.996 ± 0.024
TTCGGGATGA	1 ± 0.056
AGGAGTGGGG	1 ± 0.022
CAATATCCGA	1 ± 0.026
GGGAATGTAA	0.973 ± 0.036
CGTTCGGCTG	1.04 ± 0.039
GGGTGTAGTC	1.02 ± 0.043

Sequence	switch fluorescence ratio
GGTTTGGACG	0.981 ± 0.037
TTAGTAGTGC	1.02 ± 0.035
GTGTAACGGG	0.995 ± 0.027
GCAGTAAAGC	1.03 ± 0.032
GCGGGGCCAC	1.2 ± 0.26
AGGGGAAGGG	1.02 ± 0.012
TTTCATTTTT	0.999 ± 0.035
ACTCATATCG	0.987 ± 0.029
TGAAATAGGA	1.01 ± 0.039
AACATGTCCT	1.04 ± 0.031
TTTACGATTA	1.14 ± 0.067
GCGCTCATAG	1.15 ± 0.018
TCTCATCGGG	1.014 ± 0.0037
GGGTTGAGTT	0.9849 ± 0.0035
GGGAGGCCAT	0.9683 ± 0.0076
TAAAAGAGGA	0.9974 ± 0.0058
AGGGGCATAG	1.007 ± 0.003
GGTCGCAGTT	0.999 ± 0.022
TCATTCCTTT	1.008 ± 0.0063
GATATGTTTT	1 ± 0.035
AAGGAGTATT	1.01 ± 0.026
AACCTTATCA	1.07 ± 0.02
CATATTATGT	1.02 ± 0.011
TGATGGTGC	1.05 ± 0.066
AAGGTGTGGG	1.01 ± 0.015

Sequence	switch fluorescence ratio
GGGGGTGGGT	1 ± 0.021
AAGCGGCGTA	1.01 ± 0.042
ATTTTTCTTT	0.992 ± 0.012
AGGGCAGCGG	1.03 ± 0.033
ATCCTAGTTT	1.016 ± 0.00087
GATTGTGACG	1.06 ± 0.057
AAATTCCGTG	0.978 ± 0.043
GTATGAAGGG	0.9756 ± 0.0049
ATCGATACTT	1.067 ± 0.0098
CTGTTGGGTC	0.97927 ± 0.00013
CCACGGCAGG	1.229 ± 0.011
ACGAAGGGAG	1.02 ± 0.031
CTGGGGGTAG	1.01 ± 0.016
GGCATTGGCA	0.995 ± 0.041
GCATGTAGAT	0.998 ± 0.047
TGCAGTGGGG	1.014 ± 0.0085
CAAAGGACCT	1.136 ± 0.0082
TATAGTCTCG	1.01 ± 0.019
GGAGGGCAAA	1.01 ± 0.025
TGGGGATCAC	1.01 ± 0.071
ATTCTACGGC	1.06 ± 0.073
GTGGGATTGA	0.9898 ± 0.0043
TTAATGCCGT	1.05 ± 0.076
ATGTAGGGGA	1.0051 ± 0.001
AATCCTAAGG	1.02 ± 0.048

Sequence	switch fluorescence ratio
CGGATGTTAT	0.9626 ± 0.0096
AATATTTTTG	1 ± 0.019
TCGGGGAATG	1.002 ± 0.0032
TTTTTTAGTT	0.992 ± 0.025
CTAGTCGCGC	1 ± 0.026
TTTCGCGGGC	1.94 ± 0.53
AGTTTTCTTC	0.962 ± 0.041
TCAGTTGTTG	1 ± 0.045
TGGGATACGG	1.61 ± 1
CTTGGGGAAT	1.13 ± 0.24
AAACAGGGAT	1 ± 0.032
AACCTCTCAT	1.08 ± 0.011
TGGCGAAGTA	1.01 ± 0.013
CGGGGTGCCT	0.999 ± 0.024
CTGTATTATA	0.996 ± 0.031
TGCATTCAGG	1.02 ± 0.03
GACGTTTTTA	1.01 ± 0.046
GTGTTTTGTT	0.986 ± 0.034
TACGTGGGGG	1.02 ± 0.029
ATTAGTTTTG	0.99 ± 0.029
ATGCACGGGC	1.01 ± 0.047
TAGGCTGTTA	0.995 ± 0.036
TCGGTTCTAC	0.9985 ± 0.0099
TGCAGGGGTT	1.05 ± 0.02
AACGGTGGTC	1.03 ± 0.075

Sequence	switch fluorescence ratio
GTGCGCAATT	2.02 ± 0.082
TTCTTTAGGG	1.16 ± 0.26
GATTTTCAGA	0.998 ± 0.027
GTAGTGCGGG	0.9536 ± 0.0014
TTGGAGGGTG	1.005 ± 0.01
ATCTGATCGA	0.96 ± 0.037
AGCGGCCTAA	0.987 ± 0.014
AGACCGTGTT	1.03 ± 0.054
ATCGTCATAT	1 ± 0.036
AATTCGGGGG	1.04 ± 0.054
GTTGTAGCCA	0.966 ± 0.043
TGGAAATTTT	1 ± 0.038
TTTTGGCTTG	0.9884 ± 0.0012
GCGGGATGGG	1.08 ± 0.07
CCAGGGGGTG	1.53 ± 0.32
AAAGAGAAGT	1.02 ± 0.019
ATGGAGGCAA	1.37 ± 0.12
GTACCCTATG	1.07 ± 0.029
TTAGGAAGAC	2.27 ± 1.4
TCGTGGGGGC	1.07 ± 0.14
AAGGTTCGAT	0.984 ± 0.049
AGAGCATGGG	0.971 ± 0.016
TGAGGAAGAC	1.09 ± 0.014
AGCACTGGGA	1.04 ± 0.029
TCGTGGGACT	1.07 ± 0.12

Sequence	switch fluorescence ratio
ATAGGAGTTA	0.9814 ± 0.0071
CAGCCCGGTC	1.06 ± 0.048
GTTATAAGTG	0.9924 ± 0.0054
AGCCACTGGA	1.06 ± 0.059
CATACGTAGT	1.01 ± 0.034
GGGCATTGGT	0.991 ± 0.049
ACTAAATCGG	1.02 ± 0.039
AGACGTTTAA	1.002 ± 0.0035
GGGTCAACGC	0.9974 ± 0.0036
CACGGTTGGG	0.976 ± 0.034
CAAGCGGTT	0.9628 ± 0.0056
GGGCTGTGGG	1.01 ± 0.022
CGCGAGGACT	1.27 ± 0.11
TAAAATTGTA	0.9917 ± 0.0035
ATGATATCTC	1.02 ± 0.047
GGTTTGGTAT	0.99 ± 0.021
CGACGAGGCT	1.21 ± 0.024
TCGGTGACAG	1.01 ± 0.018
CACGTCTAGG	1.05 ± 0.048
CGCGATCTGT	1.18 ± 0.046
AAACGAGGAG	1 ± 0.013
TTTCAATCTT	1.36 ± 0.62
CAGCTGGATG	0.993 ± 0.029
GAAATTCGGG	0.978 ± 0.025
ATAACATGAC	1.21 ± 0.0044
